Measurements from patent publication CN114028561A (JIANGSU QYUNS BIOMEDICAL CO LTD, dated 2022).

Legend:
[1] = target: 食蟹猴TSLP (食蟹猴 (cynomolgus monkey), UniProt A0A7N9CAT7 29-159); assay: cell-based or functional assay
[2] = target: 天然TSLP; assay: cell-based or functional assay
[3] = target: T1, 人胸腺基质淋巴细胞生成素(Human Thymic Stromal Lymphopoietin, TSLP) (human, UniProt Q969D9 29-159); assay: cell-based or functional assay
[4] = target: T1, 人胸腺基质淋巴细胞生成素(Human Thymic Stromal …); assay: SPR (Biacore T200), antibody captured on Protein A chip, human TSLP as analyte, 25℃, 1:1 model, mean of three runs

食蟹猴TSLP, sequence (A0A7N9CAT7 entry or part of it): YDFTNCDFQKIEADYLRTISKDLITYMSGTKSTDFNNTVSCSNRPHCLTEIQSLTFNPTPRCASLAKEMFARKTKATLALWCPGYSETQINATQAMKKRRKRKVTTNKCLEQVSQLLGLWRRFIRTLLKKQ

B1: Tezepelumab (antibody, V domains shown)
VH: QMQLVESGGGVVQPGRSLRLSCAASGFTFRTYGMHWVRQAPGKGLEWVAVIWYDGSNKHYADSVKGRFTITRDNSKNTLNLQMNSLRAEDTAVYYCARAPQWELVHEAFDIWGQGTMVTVSS
VL: SYVLTQPPSVSVAPGQTARITCGGNNLGSKSVHWYQQKPGQAPVLVVYDDSDRPSWIPERFSGSNSGNTATLTISRGEAGDEADYYCQVWDSSSDHVVFGGGTKLTVLG
In the case of B1, the “IC50 of inhibition of cynomolgus TSLP-induced STAT5 phosphorylation in SW756-STAT5-Luciferase reporter cells” value [1] is reported as 1.88 ng/mL.

B2: QX008N(HZD8G2-57) (antibody, human IgG1, kappa, V domains shown)
VH: EVQLVESGGGLVQPGGSLRLSCAASGFSLSSYYMSWVRQAPGKGLEWVGFISYGGSAYHATWAQGRFTISKDNSKNTLYLQMNSLRAEDTAVYYCAREFRSMTYGAEWGIWGQGTLVTVSS
VL: AYQMTQSPSSVSASVGDRVTITCQASESIYDTLAWYQQKPGKAPKLLIYSASSLASGVPSRFSGSGSGTDFTLTISSLQPEDFATYYCQQGYTMPDVDKNPFGGGTKVEIKR
notes: also called 抗人TSLP单克隆抗体
In the case of B2, the “IC50 of inhibition of natural TSLP-induced STAT5 phosphorylation in SW756-STAT5-Luciferase reporter cells” value [2] is reported as 0.462 ng/mL, the “IC50 of inhibition of human TSLP-induced STAT5 phosphorylation in SW756-STAT5-Luciferase reporter cells” value [3] is reported as 0.837 ng/mL and the “IC50 of inhibition of human TSLP-induced TARC (CCL17) release from human PBMC” value [3] is reported as 77.1 ng/mL. For the same binder, the “IC50 of inhibition of human TSLP-induced TARC (CCL17) release from human whole blood” value [3] was 0.839 ng/mL, the “IC50 of inhibition of cynomolgus TSLP-induced STAT5 phosphorylation in SW756-STAT5-Luciferase reporter cells” value [1] was 0.889 ng/mL and the Kd [4] was 0.0175 nM. It also gave a koff [4] of 2.99e-05 s⁻¹ and a kon [4] of 1.74e+06 M⁻¹ s⁻¹.
